In patent publication US20220357348A1 (FARON PHARMACEUTICALS, published 2022):

Target: T1, human Clever-1 (Common Lymphatic Endothelial and Vascular Endothelial Receptor-1) expressed on KG-1 cells (human, UniProt Q9NY15 26-2570)
T1 construct: whole, on cells; also called Stabilin-1
Assay: flow cytometry on KG-1 cells, 4 C, titration 10-0.014 µg/mL, AlexaFluor 647 anti-HuIgG secondary
Procedure: Excess primary antibody was removed and the cells were then incubated for a further 30 minutes at 4° C. with either an AlexaFluor 647 labelled anti-HulgG or PE labelled anti-rat IgG antibody (ThermoFisher Scientific, Loughborough, UK) at 10 μg/mL. The unbound secondary antibody was washed away, and the cells fixed with BD CellFix (BD Biosciences, Oxford, UK) before analysis. Samples were acquired on an Attune NxT focussing cytometer equipped with a blue and red laser (ThermoFisher Scientific, Loughborough, UK) using the BL2 and RL1 channels for PE and AlexaFluor 647 dyes, respectively. The MFI values were plotted against the antibody concentration. […] The MFI in the absence of primary antibody is represented by a dotted line.

T1 sequence (Q9NY15 26-2570): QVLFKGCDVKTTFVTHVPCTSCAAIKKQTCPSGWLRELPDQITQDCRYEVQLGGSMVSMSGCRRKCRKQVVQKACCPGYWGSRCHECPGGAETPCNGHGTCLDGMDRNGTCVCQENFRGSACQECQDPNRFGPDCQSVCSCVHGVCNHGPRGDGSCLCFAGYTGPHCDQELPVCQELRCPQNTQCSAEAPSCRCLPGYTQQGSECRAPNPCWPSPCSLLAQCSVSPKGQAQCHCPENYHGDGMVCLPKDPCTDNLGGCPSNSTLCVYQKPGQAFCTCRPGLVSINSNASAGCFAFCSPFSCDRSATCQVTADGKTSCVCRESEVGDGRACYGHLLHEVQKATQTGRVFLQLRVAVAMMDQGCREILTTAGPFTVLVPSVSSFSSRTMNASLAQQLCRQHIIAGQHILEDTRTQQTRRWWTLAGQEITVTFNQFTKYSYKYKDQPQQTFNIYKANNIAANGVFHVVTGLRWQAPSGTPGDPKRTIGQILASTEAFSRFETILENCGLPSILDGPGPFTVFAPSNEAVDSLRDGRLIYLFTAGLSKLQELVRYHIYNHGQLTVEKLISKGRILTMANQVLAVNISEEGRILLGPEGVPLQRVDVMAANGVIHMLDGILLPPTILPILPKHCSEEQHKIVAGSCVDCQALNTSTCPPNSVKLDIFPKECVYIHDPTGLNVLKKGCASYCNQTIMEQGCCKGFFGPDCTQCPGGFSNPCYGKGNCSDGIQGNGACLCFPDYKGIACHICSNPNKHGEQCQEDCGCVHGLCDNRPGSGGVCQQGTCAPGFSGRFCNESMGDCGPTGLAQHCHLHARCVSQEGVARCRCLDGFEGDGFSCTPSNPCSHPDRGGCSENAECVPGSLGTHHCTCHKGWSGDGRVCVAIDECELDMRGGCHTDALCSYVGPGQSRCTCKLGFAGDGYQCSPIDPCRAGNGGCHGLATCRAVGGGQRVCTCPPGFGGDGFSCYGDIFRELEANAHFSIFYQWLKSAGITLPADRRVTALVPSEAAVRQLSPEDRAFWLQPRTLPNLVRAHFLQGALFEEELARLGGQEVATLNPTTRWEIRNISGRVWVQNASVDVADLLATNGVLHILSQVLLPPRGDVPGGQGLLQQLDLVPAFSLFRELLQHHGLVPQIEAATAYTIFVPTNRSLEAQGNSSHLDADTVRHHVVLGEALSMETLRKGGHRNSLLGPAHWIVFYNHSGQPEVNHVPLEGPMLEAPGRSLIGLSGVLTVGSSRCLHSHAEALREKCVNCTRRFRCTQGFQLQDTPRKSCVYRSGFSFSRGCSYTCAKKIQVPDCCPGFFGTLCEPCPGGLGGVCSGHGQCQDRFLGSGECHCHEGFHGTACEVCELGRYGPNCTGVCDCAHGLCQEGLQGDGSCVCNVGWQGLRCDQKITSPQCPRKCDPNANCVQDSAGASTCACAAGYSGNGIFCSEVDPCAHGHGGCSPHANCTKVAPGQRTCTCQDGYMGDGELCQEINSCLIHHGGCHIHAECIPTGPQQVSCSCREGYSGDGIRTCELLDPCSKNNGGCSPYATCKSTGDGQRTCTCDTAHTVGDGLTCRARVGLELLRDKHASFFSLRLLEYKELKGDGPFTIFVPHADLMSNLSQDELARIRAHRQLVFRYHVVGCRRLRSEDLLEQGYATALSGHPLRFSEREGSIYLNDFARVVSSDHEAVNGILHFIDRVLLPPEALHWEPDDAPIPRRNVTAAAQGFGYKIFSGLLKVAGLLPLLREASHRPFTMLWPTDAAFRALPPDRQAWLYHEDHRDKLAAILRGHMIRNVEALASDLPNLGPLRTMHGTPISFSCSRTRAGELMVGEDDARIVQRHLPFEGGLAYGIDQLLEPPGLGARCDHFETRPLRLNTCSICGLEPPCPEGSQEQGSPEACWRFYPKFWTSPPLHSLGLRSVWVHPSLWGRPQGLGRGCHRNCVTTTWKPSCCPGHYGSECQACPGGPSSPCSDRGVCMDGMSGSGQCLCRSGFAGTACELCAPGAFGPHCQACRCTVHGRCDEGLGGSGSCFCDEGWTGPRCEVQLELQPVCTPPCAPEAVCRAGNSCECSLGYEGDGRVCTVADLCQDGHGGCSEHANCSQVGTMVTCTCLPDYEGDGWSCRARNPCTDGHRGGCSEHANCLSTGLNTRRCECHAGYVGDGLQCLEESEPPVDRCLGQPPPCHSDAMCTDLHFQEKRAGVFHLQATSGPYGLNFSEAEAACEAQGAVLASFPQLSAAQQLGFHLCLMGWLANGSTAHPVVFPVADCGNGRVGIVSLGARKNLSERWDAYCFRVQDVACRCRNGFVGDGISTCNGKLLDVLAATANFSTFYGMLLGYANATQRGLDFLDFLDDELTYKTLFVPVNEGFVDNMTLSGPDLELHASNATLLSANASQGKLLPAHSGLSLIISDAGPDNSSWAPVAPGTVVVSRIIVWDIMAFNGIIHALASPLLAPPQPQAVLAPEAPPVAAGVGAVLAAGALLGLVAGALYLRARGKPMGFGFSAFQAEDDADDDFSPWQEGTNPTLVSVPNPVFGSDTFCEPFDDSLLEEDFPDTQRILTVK

binding result: binds
B1: humanized anti-Clever-1 antibody FP-1305 (DSM ACC3361) (antibody, human IgG4 S228P, kappa, V domains shown)
VH: QVTLKESGPTLVKPTQTLTLTCSFSGFSLSTSGMGIGWIRQPPGKALEWLAHIWWDDDKRYNPALKSRLTISKDTSKNQVVLTMTNMDPVDTATYYCARHYGYDPYYAMDYWGQGTLVTVSS
VL: EIVLTQSPGTLSLSPGERATLSCTASSSVSSSYLHWYQQKPGKAPKLLIYRTSNLASGVPSRFSGSGSGTDYTLTISSLQPEDFATYYCHQYHRSPPTFGQGTKLEIKR
notes: Its isotype control is HuIgG4 S241P L248E; also called bexmarilimab
